Source: patent US11733236B2, “Flattop (fltp) is a novel biomarker for beta cell maturation” (Helmholtz Zentrum München—Deutsches Forschungszentrum Für …, priority 2014, dated 2023)

B1: Wnt3a: ligand of the canonical Wnt/β-catenin pathway (protein, UniProt P56704 19-352, looked up)
Protein Wnt-3a: SYPIWWSLAVGPQYSSLGSQPILCASIPGLVPKQLRFCRNYVEIMPSVAEGIKIGIQECQHQFRGRRWNCTTVHDSLAIFGPVLDKATRESAFVHAIASAGVAFAVTRSCAEGTAAICGCSSRHQGSPGKGWKWGGCSEDIEFGGMVSREFADARENRPDARSAMNRHNNEAGRQAIASHMHLKCKCHGLSGSCEVKTCWWSQPDFRAIGDFLKDKYDSASEMVVEKHRESRGWVETLRPRYTYFKVPTERDLVYYEASPNFCEPNPETGSFGTRDRTCNVSSHGIDGCDLLCCGRGHNARAERRREKCRCVFHWCCYVSCQECTRVYDVHTCK
B2: Wnt5a: noncanonical Wnt ligand of the Wnt/PCP pathway, obtained from R&D systems (protein, UniProt P41221 62-380, looked up)
Protein Wnt-5a: IIGAQPLCSQLAGLSQGQKKLCHLYQDHMQYIGEGAKTGIKECQYQFRHRRWNCSTVDNTSVFGRVMQIGSRETAFTYAVSAAGVVNAMSRACREGELSTCGCSRAARPKDLPRDWLWGGCGDNIDYGYRFAKEFVDARERERIHAKGSYESARILMNLHNNEAGRRTVYNLADVACKCHGVSGSCSLKTCWLQLADFRKVGDALKEKYDSAAAMRLNSRGKLVQVNSRFNSPTTQDLVYIDPSPDYCVRNESTGSLGTQGRLCNKTSEGMDGCELMCCGRGYDQFKTVQTERCHCKFHWCCYVKCKKCTEIVDQFVCK

Legend:
β cells = assay: multiple low-dose streptozotocin (STZ) model; format: in vivo, mouse; conditions: Fltp ZV/+ and Fltp ZV/ZV mice, 40 mg/kg i.p. daily for 5 days, vs vehicle, up to day 16
Method: […] Blood glucose level was measured every 2 days using Freestyle Lite glucometer (Abbot Laboratory). On day 16 after the first STZ injection, GTT was carried out as described and mice were euthanized.
To further test the requirement of PCP and Fltp in the context of β cell survival and regeneration, a multiple low-dose streptozotocin (STZ) model was employed (Kolb 1987). Streptozotocin is a naturally occurring chemical that is particularly toxic to β cells. For this purpose STZ was injected on five consecutive days and blood glucose regulation was measured every 2nd day thereafter in Fltp^ZV/+ and Fltp^ZV/ZV cohorts (FIG. 5C). […] Thus, loss of Fltp and planar polarization in β cells increases the vulnerability to STZ.

[1] = tested on: Fltp reporter expression in β cells of cultured islets; assay: Fltp reporter expression in isolated islets cultured in absence or presence of Wnt ligands; format: cell-based, mouse; conditions: islets of Fltp-T2A-iCre x mTmG mice cultured in absence or presence of ligand
Method: For lineage tracing studies, islet from eight-week-old Fltp^T2A-iCre-mTmG were isolated as described above. For FACS analysis islet were incubate with 0.25% Trypsin-EDTA (Invitrogen) to obtain single cell suspensions and intarcellular staining for Nkx6.1 was performed. For live imaging experiment isolated islets from Fltp^T2A-iCre-mTmG were cultured in matrigel and imaging was performed using Leica Confocal SP5 microscope.
Islets of these crossings were isolated and cultured in vitro. To establish the culture conditions, it is first tested if β cells depend on Wnt/PCP signaling to maintain Ftp reporter expression. Therefore, islets were cultured in absence or presence of ligands of the canonical Wnt/β-catenin (Wnt3a) and non-canonical Wnt/PCP pathway (Wnt5a). […] Using these culture conditions in combination with live single cell imaging will allow us to follow new born Fltp-Cre expressing mT and mG expressing cells over a time-course of two to four days.

[2] = tested on: isolated islets of P5 WT animals; assay: Ucn3 maturation marker staining in isolated, re-aggregated islets of P5 WT animals, Wnt5a stimulation, LSM; format: cell-based, mouse
Method: (§1) EndoC-β H1 human β-cell line were cultured in adherence (2D culture) as described previously (Ravassard et al. (2011)). For 3D matrigel based cultures EndoC-β H1 were cultured in Matrigel Matrix Growth Factor Reduced (BD Bioscience, Germany) diluted 1:2 in their respective medium. For analysis of WNT5a induced β-cell maturation, samples were stimulated with 400 ng/ml of WNT5a (R&D systems, Germany) for 12 h or 3 days.
Murine pancreatic islets of Langerhans were isolated from 5 day old mice. After decapitation of the animals, the pancreas was dissected and supplemented with collagenase P (1 mg/ml) in HBSS (Hanks balanced salt solution) including 10% BSA (G-solution) and incubated for 15 min at 37° C. The pancreas was washed 2× in G-solution at RT and the islets were picked under the stereomicroscope (Leica). The islets were incubated in RPMI 1640 plus 5% FCS (fetal calf serum) and 1% P/S (penicillin and streptomycin). Afterwards the islets were trypsinized with 0.05% Trypsin […] at 37° C., washed twice with PBS plus 0.3% BSA and then seeded in iBidi 8 well chambers. For immunohistochemistry the protocol mentioned above was used. Fluorescent intensity was calculated by the Leica LAS-AF (Version 2.7.3.9723) software and the graphs were plotted with Excel.

EndoC-β H1 human β-cells = assay: NKX6.1 maturation marker expression in EndoC-β H1 cells cultured in Matrigel (3D), WNT5a stimulation, LSM immunofluorescence; format: cell-based
Method: as §1
Staining of EndoC-β H1 cells was performed as follows: cells were fixed for 10 min in 4% PFA at 37° C. washed 3× with PBS containing 0.2% Tween and 0.3% BSA (washing buffer) at RT, and permeabilized for 30 min on a shaker at RT. Subsequently the cells were washed again 3× with washing buffer at RT, blocked for 1 h at RT in blocking buffer (PBS including 0.02% Tween, 10% FCS, 0.2% BSA, 3% serum). Then the primary antibody was added in blocking solution and incubated over night at 4° C. The cells were washed 3× in washing buffer, incubated with the secondary antibody for 2 h at RT, washed 3× in washing buffer and embedded in Elvanol for subsequent imaging. Imaging was performed with a Leica SP5 confocal microscope according to the manufacturers guidelines. The 63× glycerol objective was used.

Row | Molecule | loss of β cells (immunohistochemistry on pancreatic sections) (β cells) | maintenance of Fltp reporter gene expression [1] | amount of maturation marker Ucn3 protein ([2]; islets of P5 WT animals treated with Wnt5a for 12 h vs non-treated, 400 ng/ml, n=3) | Ucn3 maturation marker staining ([2]; islets of P5 WT animals treated with Wnt5a for 3 days vs untreated, 400 ng/ml, n=3) | expression of maturation markers ([2]; neonatal isolated islets stimulated with Wnt5a) | expression of NKX6.1 (fluorescent intensity, NKX6.1 high vs low cells) (EndoC-β H1 human β-cells; EndoC-β H1 in Matrigel (3D) treated with WNT5a vs 3D without WNT5a, 400 ng/ml) | expression of maturation markers (EndoC-β H1 human β-cells; EndoC-β H1 stimulated with Wnt5a)
1 | CN(N=O)C(=O)N[C@H]1C(O)O[C@H](CO)[C@@H](O)[C@@H]1O (mixture of isomers) [STZ, Streptozotocin] | gradual loss of β cells | – | – | – | – | – | –
2 | B1 | – | not canonical Wnt signaling | – | – | – | – | –
3 | B2 | – | Fltp-reporter gene expression indeed depend on Wnt/PCP | higher amount of maturation marker Ucn3 protein | significant increase in Ucn3 maturation marker staining | increased expression of maturation markers | higher expression of NKX6.1 | increased expression of maturation markers
